# Measurements published in US20170258870.
# System: Helix 5 TAT peptide
substance,measurement,value
recombinant GC mutant N370S,GC enzyme activity (4-MU substrate),the helix 5 TAT-peptide led to a four-fold increase in the activity of the N370S mutant
